The target of experiment [1] is T1, human TNFR2 expressed on the cell membrane (membrane-type TNFR2) (human, UniProt P20333 23-461).
T1 construct: also called TNFRSF1B; cell membrane type TNFR2
T1 sequence: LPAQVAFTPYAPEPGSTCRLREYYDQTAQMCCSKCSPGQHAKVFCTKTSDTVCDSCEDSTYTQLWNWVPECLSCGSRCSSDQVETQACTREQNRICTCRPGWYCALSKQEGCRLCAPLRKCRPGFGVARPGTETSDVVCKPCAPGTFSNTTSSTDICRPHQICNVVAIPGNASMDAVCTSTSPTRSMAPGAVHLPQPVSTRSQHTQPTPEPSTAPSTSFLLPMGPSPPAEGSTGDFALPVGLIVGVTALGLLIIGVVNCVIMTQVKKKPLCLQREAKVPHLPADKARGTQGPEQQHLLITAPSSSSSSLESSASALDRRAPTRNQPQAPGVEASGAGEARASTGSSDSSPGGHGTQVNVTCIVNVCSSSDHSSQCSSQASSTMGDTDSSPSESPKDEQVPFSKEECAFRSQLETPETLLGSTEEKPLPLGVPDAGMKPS
The experiment can be described thus: flow cytometry on cells with transient expression of TNFR2 against untreated cells. Background: A flow cytometer gives signals particle by particle.

For experiment [2], the target named is T2, TNFR1 on transiently transfected cells (UniProt P19438 30-455, limits assumed).
T2 construct: whole, on cells
T2 sequence (looked up): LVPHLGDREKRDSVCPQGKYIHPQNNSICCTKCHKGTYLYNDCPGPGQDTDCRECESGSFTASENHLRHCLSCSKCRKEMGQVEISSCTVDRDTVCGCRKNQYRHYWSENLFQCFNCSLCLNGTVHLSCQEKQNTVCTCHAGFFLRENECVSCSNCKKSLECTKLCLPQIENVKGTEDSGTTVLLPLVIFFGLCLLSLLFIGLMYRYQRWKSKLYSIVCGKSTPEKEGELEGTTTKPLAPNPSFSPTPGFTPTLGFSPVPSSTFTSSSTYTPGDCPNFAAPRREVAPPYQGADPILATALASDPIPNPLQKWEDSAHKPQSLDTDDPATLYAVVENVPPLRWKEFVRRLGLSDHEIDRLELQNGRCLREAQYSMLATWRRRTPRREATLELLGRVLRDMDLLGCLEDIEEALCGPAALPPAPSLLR
The experiment can be described thus: flow cytometry on transiently transfected cells.

B1: humanized TR92 antibody (TR92HUVH1 + TR92HUVL1) (antibody, V domains shown)
VH: QVQLVQSGAEVKKPGASVKVSCKASGYTFTESIIHWVRQAPGQGLEWMGWFYPGSDNINYNEKFKDRVTMTRDTSISTAYMELSRLRSDDTAVYYCARHEGPYVYFDYWGQGTTVTVSS
VL: DIVMTQSPDSLAVSLGERATINCKASQDVSTAVAWYQQKPGQPPKLLIYWTSTRHTGVPDRFSGSGSGTDFTLTISSLQAEDVAVYYCQHHYSTPYTFGQGTKLEIK
notes: also called one of the four humanized TR92 antibodies
With B1, in experiment [1], the binding result was “binds”.

B2: humanized TR92 antibody (TR92HUVH1 + TR92HUVL2) (antibody, V domains shown)
VH: QVQLVQSGAEVKKPGASVKVSCKASGYTFTESIIHWVRQAPGQGLEWMGWFYPGSDNINYNEKFKDRVTMTRDTSISTAYMELSRLRSDDTAVYYCARHEGPYVYFDYWGQGTTVTVSS
VL: DIQMTQSPSSLSASVGDRVTITCKASQDVSTAVAWYQQKPGKAPKLLIYWTSTRHTGVPSRFSGSGSGTDFTLTISSLQPEDFATYYCQHHYSTPYTFGQGTKLEIK
notes: as for B1
Consider B2, for which the binding result in experiment [1] is “binds”.

B3: humanized TR92 antibody (TR92HUVH2 + TR92HUVL1) (antibody, V domains shown)
VH: QVQLVQSGAEVKKPGASVKVSCKASGYTFTESIIHWVRQATGQGLEWMGWFYPGSDNINYNEKFKDRVTMTRNTSISTAYMELSSLRSEDTAVYYCARHEGPYVYFDYWGQGTTVTVSS
VL: DIVMTQSPDSLAVSLGERATINCKASQDVSTAVAWYQQKPGQPPKLLIYWTSTRHTGVPDRFSGSGSGTDFTLTISSLQAEDVAVYYCQHHYSTPYTFGQGTKLEIK
notes: as for B1
Turning to B3, the binding result in experiment [1] was “binds”.

B4: humanized TR92 antibody (TR92HUVH2 + TR92HUVL2) (antibody, V domains shown)
VH: QVQLVQSGAEVKKPGASVKVSCKASGYTFTESIIHWVRQATGQGLEWMGWFYPGSDNINYNEKFKDRVTMTRNTSISTAYMELSSLRSEDTAVYYCARHEGPYVYFDYWGQGTTVTVSS
VL: DIQMTQSPSSLSASVGDRVTITCKASQDVSTAVAWYQQKPGKAPKLLIYWTSTRHTGVPSRFSGSGSGTDFTLTISSLQPEDFATYYCQHHYSTPYTFGQGTKLEIK
notes: as for B1
As for B4, the binding result in experiment [1] is recorded as “binds”.

B5: humanized TR109 antibody (TR109HUVH1 + TR109HUVL1) (antibody, V domains shown)
VH: QVQLQESGPGLVKPSGTLSLTCAVSGGSISVYGVNWVRQPPGKGLEWIGMIWGDGSTAYNSALKSRVTISVDKSKNQFSLKLSSVTAADTAVYYCARDGRRYALDYWGQGTLVTVSS
VL: DIVMTQSPDSLAVSLGERATINCRASESVDSYGDSFLHWYQQKPGQPPKLLIYRASNLDSGVPDRFSGSGSGTDFTLTISSLQAEDVAVYYCQQSNEDPYTFGQGTKLEIK
notes: also called one of the four humanized TR109 antibodies
In the case of B5, in experiment [1], the binding result was “binds”.

B6: humanized TR109 antibody (TR109HUVH1 + TR109HUVL2) (antibody, V domains shown)
VH: QVQLQESGPGLVKPSGTLSLTCAVSGGSISVYGVNWVRQPPGKGLEWIGMIWGDGSTAYNSALKSRVTISVDKSKNQFSLKLSSVTAADTAVYYCARDGRRYALDYWGQGTLVTVSS
VL: EIVLTQSPATLSLSPGERATLSCRASESVDSYGDSFLHWYQQKPGQAPRLLIYRASNLDSGIPARFSGSGSGTDFTLTISSLEPEDFAVYYCQQSNEDPYTFGQGTKLEIK
notes: as for B5
Turning to B6, in experiment [1], the binding result is “binds”.

B7: humanized TR109 antibody (TR109HUVH2 + TR109HUVL2) (antibody, V domains shown)
VH: QVQLQESGPGLVKPSETLSLTCTVSGYSISVYGVNWIRQPPGKGLEWIGMIWGDGSTAYNSALKSRVTISVDTSKNQFSLKLSSVTAADTAVYYCARDGRRYALDYWGQGTLVTVSS
VL: EIVLTQSPATLSLSPGERATLSCRASESVDSYGDSFLHWYQQKPGQAPRLLIYRASNLDSGIPARFSGSGSGTDFTLTISSLEPEDFAVYYCQQSNEDPYTFGQGTKLEIK
notes: as for B5
For B7, the binding result in experiment [1] is “binds”.

B8: humanized TR109 antibody (TR109HUVH2 + TR109HUVL1) (antibody, V domains shown)
VH: QVQLQESGPGLVKPSETLSLTCTVSGYSISVYGVNWIRQPPGKGLEWIGMIWGDGSTAYNSALKSRVTISVDTSKNQFSLKLSSVTAADTAVYYCARDGRRYALDYWGQGTLVTVSS
VL: DIVMTQSPDSLAVSLGERATINCRASESVDSYGDSFLHWYQQKPGQPPKLLIYRASNLDSGVPDRFSGSGSGTDFTLTISSLQAEDVAVYYCQQSNEDPYTFGQGTKLEIK
notes: as for B5
Take B8: the binding result in experiment [1] is on record as “binds”.

B9: TR109 (anti-TNFR2 antagonist antibody, mouse monoclonal) (antibody, V domains shown)
VH: QVQLKESGPGLVAPSQSLSITCTVSGFSLTVYGVNWVRQPPGKGLEWLGMIWGDGSTAYNSALKSRLTITKDNSKTQVFLKMNSLQTDDTARYYCARDGRRYALDYWGQGTSVTVSS
VL: DIVLTQSPTSLAVSLGQRATISCRASESVDSYGDSFLHWYQQKPGQPPILLIYRASNLDSGIPARFSGSGSRTDFTLTINPVEADDVATYYCQQSNEDPYTFGGGTKLEINR
notes: also called Ep9: TR109; Ep7
In the case of B9, the binding result in experiment [2] is reported as “no binding”.

Source of the values: patent publication WO2018092907A1 (dated 2018).
